Results from patent US10196657B2, “Methods of producing 7-carbon chemicals via methyl-ester shielded carbon chain elongation” (INVISTA North America S.á r.l., priority 2012, dated 2019).

Experiments:
Assay type in all cases: biochemical
[1] = ω-transaminase activity assay, forward direction (pimelate semialdehyde to 7-aminoheptanoate); settings: for acceptance of pimelate semialdehyde as substrate (formation of pyruvate from L-alanine, RP-HPLC): cell free extract, 10 mM pimelate semialdehyde, 10 mM L-alanine, 25° C., 4 h, against empty vector control, FIG. 16; for acceptance of pimelate semialdehyde as substrate, synthesizing 7-aminoheptanoate (conclusion from confirmed reversibility): concluded from reversibility of the ω-transaminase activity
Description: (§1) A sequence encoding an N-terminal His-tag was added to the genes from Chromobacterium violaceum, Pseudomonas syringae, Rhodobacter sphaeroides, and Vibrio Fluvialis encoding the ω-transaminases of SEQ ID NOs: 8, 10, 11 and 13, respectively (see FIGS. 7F and 7G) such that N-terminal HIS tagged ω-transaminases could be produced. Each of the resulting modified genes was cloned into a pET21a expression vector under control of the T7 promoter and each expression vector was transformed into a BL21[DE3] E. coli host. The resulting recombinant E. coli strains were cultivated at 37° C. in a 250 mL shake flask culture containing 50 mL LB media and antibiotic selection pressure, with shaking at 230 rpm. Each culture was induced overnight at 16° C. using 1 mM IPTG.
(§2) The pellet from each induced shake flask culture was harvested via centrifugation. Each pellet was resuspended and lysed via sonication. The cell debris was separated from the supernatant via centrifugation and the cell free extract was used immediately in enzyme activity assays.
Enzyme activity in the forward direction (i.e., pimelate semialdehyde to 7-aminoheptanoate) was confirmed for the transaminases of SEQ ID NO 10, SEQ ID NO 11 and SEQ ID NO 13. Enzyme activity assays were performed in a buffer composed of a final concentration of 50 mM HEPES buffer (pH=7.5), 10 mM pimelate semialdehyde, 10 mM L-alanine and 100 μM pyridoxyl 5′ phosphate. Each enzyme activity assay reaction was initiated by adding a cell free extract of the ω-transaminase gene product or the empty vector control to the assay buffer containing the pimelate semialdehyde and incubated at 25° C. for 4 h, with shaking at 250 rpm. The formation of pyruvate was quantified via RP-HPLC.

[2] = ω-transaminase activity assay, reverse direction (7-aminoheptanoate to pimelate semialdehyde); settings: cell free extract, 10 mM 7-aminoheptanoate, 10 mM pyruvate, 25° C., 4 h; against empty vector control; FIG. 15
Description: as §1, §2
Enzyme activity assays in the reverse direction (i.e., 7-aminoheptanoate to pimelate semialdehyde) were performed in a buffer composed of a final concentration of 50 mM HEPES buffer (pH=7.5), 10 mM 7-aminoheptanoate, 10 mM pyruvate and 100 μM pyridoxyl 5′ phosphate. Each enzyme activity assay reaction was initiated by adding cell free extract of the ω-transaminase gene product or the empty vector control to the assay buffer containing the 7-aminoheptanoate and incubated at 25° C. for 4 h, with shaking at 250 rpm. The formation of L-alanine from pyruvate was quantified via RP-HPLC.

[3] = Carboxylate reductase activity assay, N7-acetyl-7-aminoheptanoate to N7-acetyl-7-aminoheptanal; settings: purified enzyme enhanced by sfp gene product, 2 mM substrate, room temperature, 20 min; against empty vector control; FIG. 12
Description: The activity of each of the N-terminal His-tagged carboxylate reductases of SEQ ID NOs: 3, 6, and 7 (see Examples 4, and FIGS. 7B, 7E, and 7F) for converting N7-acetyl-7-aminoheptanoate to N7-acetyl-7-aminoheptanal was assayed in triplicate in a buffer composed of a final concentration of 50 mM HEPES buffer (pH=7.5), 2 mM N7-acetyl-7-aminoheptanoate, 10 mM MgCl2, 1 mM ATP, and 1 mM NADPH. The assays were initiated by adding purified carboxylate reductase and phosphopantetheine transferase or the empty vector control to the assay buffer containing the N7-acetyl-7-aminoheptanoate then incubated at room temperature for 20 min. The consumption of NADPH was monitored by absorbance at 340 nm.

[4] = ω-transaminase activity assay, 7-aminoheptanol to 7-oxoheptanol
Description: A nucleotide sequence encoding an N-terminal His-tag was added to the Chromobacterium violaceum, Pseudomonas syringae and Rhodobacter sphaeroides genes encoding the ω-transaminases of SEQ ID NOs: 8, 10 and 11, respectively (see FIGS. 7F and 7G) such that N-terminal HIS tagged ω-transaminases could be produced. The modified genes were cloned into a pET21a expression vector under the T7 promoter. Each expression vector was transformed into a BL21[DE3] E. coli host. Each resulting recombinant E. coli strain were cultivated at 37° C. in a 250 mL shake flask culture containing 50 mL LB media and antibiotic selection pressure, with shaking at 230 rpm. Each culture was induced overnight at 16° C. using 1 mM IPTG.
as §2
Enzyme activity assays in the reverse direction (i.e., 7-aminoheptanol to 7-oxoheptanol) were performed in a buffer composed of a final concentration of 50 mM HEPES buffer (pH=7.5), 10 mM 7-aminoheptanol, 10 mM pyruvate, and 100 μM pyridoxyl 5′ phosphate. Each enzyme activity assay reaction was initiated by adding cell free extract of the ω-transaminase gene product or the empty vector control to the assay buffer containing the 7-aminoheptanol and then incubated at 25° C. for 4 h, with shaking at 250 rpm. The formation of L-alanine was quantified via RP-HPLC.

Molecule | acceptance of 7-aminoheptanoate as substrate (formation of L-alanine from pyruvate, RP-HPLC) [2] | acceptance of 7-aminoheptanol as substrate (formation of L-alanine, RP-HPLC) ([4]; cell free extract, 10 mM 7-aminoheptanol, 10 mM pyruvate, 25° C., 4 h, against empty vector control, FIG. 19) | acceptance of 7-oxoheptanol as substrate, forming 7-aminoheptanol (concluded from reversibility) ([4]; concluded from reversibility of the ω-transaminase activity (Example 2)) | acceptance of pimelate semialdehyde as substrate (formation of pyruvate from L-alanine, RP-HPLC) [1] | acceptance of pimelate semialdehyde as substrate, synthesizing 7-aminoheptanoate (conclusion from confirmed reversibility) [1] | acceptance of N7-acetyl-7-aminoheptanoate as substrate (NADPH consumption, absorbance at 340 nm) [3]
SEQ ID NO 3: Mycobacterium smegmatis carboxylate reductase, Genbank Accession No. ABK71854.1 (protein, listed as Mycobacterium smegmatis) MTSDVHDATDGVTETALDDEQSTRRIAELYATDPEFAAAAPLPAVVDAAHKPGLRLAEILQTLFTGYGDRPALGYRARELATDEGGRTVTRLLPRFDTLTYAQVWSRVQAVAAALRHNFAQPIYPGDAVATIGFASPDYLTLDLVCAYLGLVSVPLQHNAPVSRLAPILAEVEPRILTVSAEYLDLAVESVRDVNSVSQLVVFDHHPEVDDHRDALARAREQLAGKGIAVTTLDAIADEGAGLPAEPIYTADHDQRLAMILYTSGSTGAPKGAMYTEAMVARLWTMSFITGDPTPVINVNFMPLNHLGGRIPISTAVQNGGTSYFVPESDMSTLFEDLALVRPTELGLVPRVADMLYQHHLATVDRLVTQGADELTAEKQAGAELREQVLGGRVITGFVSTAPLAAEMRAFLDITLGAHIVDGYGLTETGAVTRDGVIVRPPVIDYKLIDVPELGYFSTDKPYPRGELLVRSQTLTPGYYKRPEVTASVFDRDGYYHTGDVMAETAPDHLVYVDRRNNVLKLAQGEFVAVANLEAVFSGAALVRQIFVYGNSERSFLLAVVVPTPEALEQYDPAALKAALADSLQRTARDAELQSYEVPADFIVETEPFSAANGLLSGVGKLLRPNLKDRYGQRLEQMYADIAATQANQLRELRRAAATQPVIDTLTQAAATILGTGSEVASDAHFTDLGGDSLSALTLSNLLSDFFGFEVPVGTIVNPATNLAQLAQHIEAQRTAGDRRPSFTTVHGADATEIRASELTLDKFIDAETLRAAPGLPKVTTEPRTVLLSGANGWLGRFLTLQWLERLAPVGGTLITIVRGRDDAAARARLTQAYDTDPELSRRFAELADRHLRVVAGDIGDPNLGLTPEIWHRLAAEVDLVVHPAALVNHVLPYRQLFGPNVVGTAEVIKLALTERIKPVTYLSTVSVAMGIPDFEEDGDIRTVSPVRPLDGGYANGYGNSKWAGEVLLREAHDLCGLPVATFRSDMILAHPRYRGQVNVPDMFTRLLLSLLITGVAPRSFYIGDGERPRAHYPGLTVDFVAEAVTTLGAQQREGYVSYDVMNPHDDGISLDVFVDWLIRAGHPIDRVDDYDDWVRRFETALTALPEKRRAQTVLPLLHAFRAPQAPLRGAPEPTEVFHAAVRTAKVGPGDIPHLDEALIDKYIRDLREFGLI |  |  |  |  |  | accepted N7-acetyl-7-aminoheptanoate as substrate
SEQ ID NO 6: Mycobacterium massiliense carboxylate reductase, Genbank Accession No. EIV11143.1 (protein, Mycobacterium massiliense) MTNETNPQQEQLSRRIESLRESDPQFRAAQPDPAVAEQVLRPGLHLSEAIAALMTGYAERPALGERARELVIDQDGRTTLRLLPRFDTTTYGELWSRTTSVAAAWHHDATHPVKAGDLVATLGFTSIDYTVLDLAIMILGGVAVPLQTSAPASQWTTILAEAEPNTLAVSIELIGAAMESVRATPSIKQVVVFDYTPEVDDQREAFEAASTQLAGTGIALETLDAVIARGAALPAAPLYAPSAGDDPLALLIYTSGSTGAPKGAMHSENIVRRWWIREDVMAGTENLPMIGLNFMPMSHIMGRGTLTSTLSTGGTGYFAASSDMSTLFEDMELIRPTALALVPRVCDMVFQRFQTEVDRRLASGDTASAEAVAAEVKADIRDNLFGGRVSAVMVGSAPLSEELGEFIESCFELNLTDGYGSTEAGMVFRDGIVQRPPVIDYKLVDVPELGYFSTDKPHPRGELLLKTDGMFLGYYKRPEVTASVFDADGFYMTGDIVAELAHDNIEIIDRRNNVLKLSQGEFVAVATLEAEYANSPVVHQIYVYGSSERSYLLAVVVPTPEAVAAAKGDAAALKTTIADSLQDIAKEIQLQSYEVPRDFIIEPQPFTQGNGLLTGIAKLARPNLKAHYGPRLEQMYAEIAEQQAAELRALHGVDPDKPALETVLKAAQALLGVSSAELAADAHFTDLGGDSLSALSFSDLLRDIFAVEVPVGVIVSAANDLGGVAKFVDEQRHSGGTRPTAETVHGAGHTEIRAADLTLDKFIDEATLHAAPSLPKAAGIPHTVLLTGSNGYLGHYLALEWLERLDKTDGKLIVIVRGKNAEAAYGRLEEAFDTGDTELLAHFRSLADKHLEVLAGDIGDPNLGLDADTWQRLADTVDVIVHPAALVNHVLPYNQLFGPNVVGTAEIIKLAITTKIKPVTYLSTVAVAAYVDPTTFDEESDIRLISAVRPIDDGYANGYGNAKWAGEVLLREAHDLCGLPVAVFRSDMILAHSRYTGQLNVPDQFTRLILSLIATGIAPGSFYQAQTTGERPLAHYDGLPGDFTAEAITTLGTQVPEGSEGFVTYDCVNPHADGISLDNFVDWLIEAGYPIARIDNYTEWFTRFDTAIRGLSEKQKQHSLLPLLHAFEQPSAAENHGVVPAKRFQHAVQAAGIGPVGQDGTTDIPHLSRRLIVKYAKDLEQLGLL |  |  |  |  |  | accepted N7-acetyl-7-aminoheptanoate as substrate

Now from value to molecule, other results behind:

acceptance of 7-aminoheptanoate as substrate (formation of L-alanine from pyruvate, RP-HPLC) [2] | acceptance of 7-aminoheptanol as substrate (formation of L-alanine, RP-HPLC) ([4]; cell free extract, 10 mM 7-aminoheptanol, 10 mM pyruvate, 25° C., 4 h, against empty vector control, FIG. 19) | acceptance of 7-oxoheptanol as substrate, forming 7-aminoheptanol (concluded from reversibility) ([4]; concluded from reversibility of the ω-transaminase activity (Example 2)) | Molecule | acceptance of pimelate semialdehyde as substrate (formation of pyruvate from L-alanine, RP-HPLC) [1] | acceptance of pimelate semialdehyde as substrate, synthesizing 7-aminoheptanoate (conclusion from confirmed reversibility) [1] | acceptance of N7-acetyl-7-aminoheptanoate as substrate (NADPH consumption, absorbance at 340 nm) [3]
accepted 7-aminoheptanote as substrate |  |  | SEQ ID NO 13: Vibrio fluvialis ω-transaminase, Genbank Accession No. AEA39183.1 (protein, listed as Vibrio fluvialis) MNKPQSWEARAETYSLYGFTDMPSLHQRGTVVVTHGEGPYIVDVNGRRYLDANSGLWNMVAGFDHKGLIDAAKAQYERFPGYHAFFGRMSDQTVMLSEKLVEVSPFDSGRVFYTNSGSEANDTMVKMLWFLHAAEGKPQKRKILTRWNAYHGVTAVSASMTGKPYNSVFGLPLPGFVHLTCPHYWRYGEEGETEEQFVARLARELEETIQREGADTIAGFFAEPVMGAGGVIPPAKGYFQAILPILRKYDIPVISDEVICGFGRTGNTWGCVTYDFTPDAIISSKNLTAGFFPMGAVILGPELSKRLETAIEAIEEFPHGFTASGHPVGCAIALKAIDVVMNEGLAENVRRLAPRFEERLKHIAERPNIGEYRGIGFMWALEAVKDKASKTPFDGNLSVSERIANTCTDLGLICRPLGQSVVLCPPFILTEAQMDEMFDKLEKALDKVFAEVA | accepted pimelate semialdehyde as substrate | accepted pimelate semialdehyde as substrate | 
accepted 7-aminoheptanote as substrate | accepted 7-aminoheptanol as substrate | accept 7-oxoheptanol as substrate | SEQ ID NO 10: Pseudomonas syringae ω-transaminase, Genbank Accession No. AAY39893.1 (protein, listed as Pseudomonas syringae) MSANNPQTLEWQALSSEHHLAPFSDYKQLKEKGPRIITRAEGVYLWDSEGNKILDGMSGLWCVAIGYGREELADAASKQMRELPYYNLFFQTAHPPVLELAKAISDIAPEGMNHVFFTGSGSEGNDTMLRMVRHYWALKGQPNKKTIISRVNGYHGSTVAGASLGGMTYMHEQGDLPIPGVVHIPQPYWFGEGGDMTPDEFGIWAAEQLEKKILELGVENVGAFIAEPIQGAGGVIVPPDSYWPKIKEILSRYDILFAADEVICGFGRTSEWFGSDFYGLRPDMMTIAKGLTSGYVPMGGLIVRDEIVAVLNEGGDFNHGFTYSGHPVAAAVALENIRILREEKIVERVRSETAPYLQKRLRELSDHPLVGEVRGVGLLGAIELVKDKTTRERYTDKGAGMICRTFCFDNGLIMRAVGDTMIIAPPLVISFAQIDELVEKARTCLDLTLAVLQG | accepted pimelate semialdehyde as substrate | accepted pimelate semialdehyde as substrate | 
